# Assay results as given in US20190085055A1.
# “And” between values parts separate entries of the source, which are not always exact repeats. Equal entries are not always repeated.
# What was measured:
# [1] = target: tissue factor extracellular domains (human) (UniProt P13726); experiment: SPR, TF immobilised, purified Fab as analyte, 1:1 model
# [2] = target: D3H44 light chain, wild type; experiment: LCCA (SPR), competitor L2 F118W_V133S
# [3] = target: D3H44 light chain F118W_V133S; experiment: LCCA (SPR), competitor L1 WT
# [4] = target: D3H44 light chain F118W_V133S; experiment: LCCA (SPR), competitor L1 F116A
# [5] = target: D3H44 light chain F116A; experiment: LCCA (SPR), competitor L2 F118W_V133S
# [6] = target: D3H44 light chain, wild type; experiment: LCCA (SPR), competitor L2 F116A
# [7] = target: D3H44 light chain F116A; experiment: LCCA (SPR), competitor L1 WT
# [8] = target: D3H44 light chain F118W_V133S; experiment: LCCA (SPR), competitor L1 F116S
# [9] = target: D3H44 light chain F116S; experiment: LCCA (SPR), competitor L2 F118W_V133S
# [10] = target: D3H44 light chain, wild type; experiment: LCCA (SPR), competitor L2 F98L
# [11] = target: D3H44 light chain F98L; experiment: LCCA (SPR), competitor L1 WT
# [12] = target: D3H44 light chain S176L; experiment: LCCA (SPR), competitor L2 WT
# D3H44 light chain S176L, sequence (light, as listed by the source): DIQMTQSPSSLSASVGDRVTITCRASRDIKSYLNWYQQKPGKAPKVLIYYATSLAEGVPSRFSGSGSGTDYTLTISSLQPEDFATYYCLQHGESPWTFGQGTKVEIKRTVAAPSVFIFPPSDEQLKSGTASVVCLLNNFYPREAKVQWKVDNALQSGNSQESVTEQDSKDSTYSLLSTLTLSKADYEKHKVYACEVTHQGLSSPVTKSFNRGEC
# [13] = target: D3H44 light chain, wild type; experiment: LCCA (SPR), competitor L1 S176L
# [14] = target: D3H44 light chain Y87G; experiment: LCCA (SPR), competitor L2 P44W
# D3H44 light chain Y87G, sequence (light, as listed by the source limits assumed): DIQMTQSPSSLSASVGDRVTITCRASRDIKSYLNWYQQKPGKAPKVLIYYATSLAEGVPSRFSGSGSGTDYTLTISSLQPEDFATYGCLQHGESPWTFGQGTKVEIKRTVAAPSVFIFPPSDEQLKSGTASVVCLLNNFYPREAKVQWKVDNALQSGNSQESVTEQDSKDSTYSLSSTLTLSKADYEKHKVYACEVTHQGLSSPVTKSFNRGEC
# [15] = target: D3H44 light chain P44W; experiment: LCCA (SPR), competitor L1 Y87G
# [16] = target: D3H44 light chain Q38N_T85K; experiment: LCCA (SPR), competitor L1 Q38N_T85E
# D3H44 light chain Q38N_T85K, sequence (light, as listed by the source limits assumed): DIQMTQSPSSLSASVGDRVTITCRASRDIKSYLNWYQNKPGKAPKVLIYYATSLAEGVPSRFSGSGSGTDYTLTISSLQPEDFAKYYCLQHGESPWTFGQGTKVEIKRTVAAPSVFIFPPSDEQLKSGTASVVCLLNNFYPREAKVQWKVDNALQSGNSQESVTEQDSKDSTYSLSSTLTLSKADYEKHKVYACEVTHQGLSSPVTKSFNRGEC
# [17] = target: D3H44 light chain Q38D; experiment: LCCA (SPR), competitor L1 Q38R
# D3H44 light chain Q38D, sequence (light, as listed by the source limits assumed): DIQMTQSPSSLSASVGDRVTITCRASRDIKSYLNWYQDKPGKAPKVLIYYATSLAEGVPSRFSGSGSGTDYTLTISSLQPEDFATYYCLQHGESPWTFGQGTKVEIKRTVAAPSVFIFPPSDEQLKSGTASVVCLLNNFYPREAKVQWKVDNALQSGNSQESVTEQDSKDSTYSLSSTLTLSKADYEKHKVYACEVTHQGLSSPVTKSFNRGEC
# [18] = target: D3H44 light chain Q38R; experiment: LCCA (SPR), competitor L2 Q38D
# D3H44 light chain Q38R, sequence (light, as listed by the source): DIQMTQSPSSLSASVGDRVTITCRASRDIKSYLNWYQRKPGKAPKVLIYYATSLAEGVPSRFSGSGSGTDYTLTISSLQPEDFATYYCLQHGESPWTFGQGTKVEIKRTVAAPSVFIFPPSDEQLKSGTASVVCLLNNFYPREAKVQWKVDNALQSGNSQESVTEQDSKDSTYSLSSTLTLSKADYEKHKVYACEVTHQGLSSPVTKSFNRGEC
# [19] = target: D3H44 light chain Q38N_T85E; experiment: LCCA (SPR), competitor L2 Q38N_T85K
# D3H44 light chain Q38N_T85E, sequence (light, as listed by the source limits assumed): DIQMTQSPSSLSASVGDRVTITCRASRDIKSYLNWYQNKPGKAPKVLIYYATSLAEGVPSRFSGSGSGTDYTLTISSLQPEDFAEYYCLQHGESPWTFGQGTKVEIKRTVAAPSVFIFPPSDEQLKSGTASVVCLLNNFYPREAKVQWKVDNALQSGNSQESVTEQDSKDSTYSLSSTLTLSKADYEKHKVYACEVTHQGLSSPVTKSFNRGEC
# [20] = target: D3H44 light chain F98A; experiment: LCCA (SPR), competitor L1 Q38R
# [21] = target: D3H44 light chain P44W; experiment: LCCA (SPR), competitor L1 F98L
# [22] = target: D3H44 light chain F98L; experiment: LCCA (SPR), competitor L2 P44W
# [23] = target: D3H44 light chain P44W; experiment: LCCA (SPR), competitor L2 F98W
# [24] = target: D3H44 light chain P44W; experiment: LCCA (SPR), competitor L2 F98A
# [25] = target: D3H44 light chain F98W; experiment: LCCA (SPR), competitor L1 P44W
# [26] = target: D3H44 light chain F98A; experiment: LCCA (SPR), competitor L1 P44W
# [27] = target: D3H44 light chain P44W; experiment: LCCA (SPR), competitor L2 F98L
# [28] = target: D3H44 light chain F98L; experiment: LCCA (SPR), competitor L1 P44W
# [29] = target: D3H44 light chain L89R_F98W; experiment: LCCA (SPR), competitor L2 F98Y
# D3H44 light chain L89R_F98W, sequence (light, as listed by the source): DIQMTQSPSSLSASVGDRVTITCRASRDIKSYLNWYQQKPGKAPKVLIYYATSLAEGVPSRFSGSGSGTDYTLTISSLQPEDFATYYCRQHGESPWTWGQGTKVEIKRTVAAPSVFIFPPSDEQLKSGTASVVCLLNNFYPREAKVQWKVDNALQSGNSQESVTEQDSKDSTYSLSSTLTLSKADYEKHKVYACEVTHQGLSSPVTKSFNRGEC
# [30] = target: D3H44 light chain F98Y; experiment: LCCA (SPR), competitor L1 L89R_F98W
# D3H44 light chain F98Y, sequence (light, as listed by the source limits assumed): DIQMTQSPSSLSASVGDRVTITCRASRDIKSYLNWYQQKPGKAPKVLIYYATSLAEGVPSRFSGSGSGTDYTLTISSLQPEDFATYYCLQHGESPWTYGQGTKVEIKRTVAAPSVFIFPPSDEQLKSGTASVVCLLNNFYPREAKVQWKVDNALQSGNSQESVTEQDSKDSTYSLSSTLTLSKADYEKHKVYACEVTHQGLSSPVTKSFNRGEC
# [31] = target: D3H44 light chain F98W; experiment: LCCA (SPR), competitor L1 F98L
# [32] = target: D3H44 light chain F98L; experiment: LCCA (SPR), competitor L2 F98W
# tissue factor extracellular domains (human), sequence (P13726 33-251): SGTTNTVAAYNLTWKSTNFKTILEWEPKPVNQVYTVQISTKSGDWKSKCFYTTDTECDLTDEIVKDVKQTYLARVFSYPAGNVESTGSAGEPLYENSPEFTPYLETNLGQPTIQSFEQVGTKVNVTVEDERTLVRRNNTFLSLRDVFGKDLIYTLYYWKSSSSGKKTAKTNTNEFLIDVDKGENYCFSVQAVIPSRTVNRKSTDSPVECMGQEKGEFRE
# D3H44 light chain, wild type, sequence (light, as listed by the source): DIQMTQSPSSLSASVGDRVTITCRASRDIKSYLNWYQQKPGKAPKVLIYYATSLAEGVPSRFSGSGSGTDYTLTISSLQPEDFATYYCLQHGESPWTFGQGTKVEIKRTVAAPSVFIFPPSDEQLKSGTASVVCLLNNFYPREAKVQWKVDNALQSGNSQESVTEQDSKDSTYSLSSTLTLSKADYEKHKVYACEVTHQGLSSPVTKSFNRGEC
substance,measurement,setting,value
"D3H44 Fab Design 11 H1-L1 (H1 S188L_V190Y, L1 V133S)",Kd,[1],0.043 nM
"D3H44 Fab Design 11 H2-L2 (H2 F174V_P175S_S188G, L2 S176L)",Kd,[1],0.04 nM
"D3H44 Fab Design 13 H1-L1 (H1 L143A_D144G_Q179R, L1 Q124E_V133W_Q160E_T180E)",Kd,[1],0.087 nM
"D3H44 Fab Design 13 H2-L2 (H2 K145T_Q179D_S188F, L2 V133A_Q160K_T178R)",Kd,[1],0.086 nM
"D3H44 Fab Design 15 H1-L1 (H1 D146G_Q179R, L1 Q124E_Q160E_T178D)",Kd,[1],0.082 nM
"D3H44 Fab Design 15 H2-L2 (H2 K145T_Q179D_S188L, L2 Q160K_T178R)",Kd,[1],0.071 nM
"D3H44 Fab Design 30 H1-L1 (H1 D148G_Q175K, L1 Q124E_Q160E_T180E)",Kd,[1],0.024 nM
"D3H44 Fab Design 30 H2-L2 (H2 L145E_K147T, L2 Q160K_T178R)",Kd,[1],0.06 nM
"D3H44 Fab Design 31 H1-L1 (H1 Q39D_A141G_V185A, L1 Q38R_L135W)",Kd,[1],0.025 nM
D3H44 heavy chain (Fab format) A139I,H2 L1 of H2 L2:H2 L1 (screen),[2],28.9
same,H2 L2 of H2 L2:H2 L1 (screen),[3],51.9
D3H44 heavy chain (Fab format) A139I_V190S,H1 L2 of H1 L1:H1 L2 (screen),[4],25.1
same,H1 L2 of H1 L1:H1 L2 (verification),[4],0.759
same,H1 L1 of H1 L1:H1 L2 (screen),[5],64.7
same,H1 L1 of H1 L1:H1 L2 (verification),[5],59.8
same,H1 L1 of H1 L1:H1 L2 (screen),[2],67.1
same,H1 L1 of H1 L1:H1 L2 (verification),[2],77
same,H1 L2 of H1 L1:H1 L2 (screen),[3],28
same,H1 L2 of H1 L1:H1 L2 (verification),[3],8.2
D3H44 heavy chain (Fab format) A139V,H2 L2 of H2 L2:H2 L1 (screen),[4],63.9
same,H2 L2 of H2 L2:H2 L1 (verification),[4],24.5 and 56.1
same,H2 L1 of H2 L2:H2 L1 (screen),[5],35.7
same,H2 L1 of H2 L2:H2 L1 (verification),[5],56.1 and 24.5
D3H44 heavy chain (Fab format) A139V_V190S,H1 L2 of H1 L1:H1 L2 (screen),[4],35.1
same,H1 L2 of H1 L1:H1 L2 (verification),[4],10.1
same,H1 L1 of H1 L1:H1 L2 (screen),[5],68.7
same,H1 L1 of H1 L1:H1 L2 (verification),[5],42.1
same,H1 L1 of H1 L1:H1 L2 (screen),[2],58.8
same,H1 L1 of H1 L1:H1 L2 (verification),[2],52.2
same,H1 L2 of H1 L1:H1 L2 (screen),[3],35.2
same,H1 L2 of H1 L1:H1 L2 (verification),[3],8.66
D3H44 heavy chain (Fab format) A139W_V190A,H2 L1 of H2 L2:H2 L1 (screen),[6],17.8
same,H2 L1 of H2 L2:H2 L1 (verification),[6],19.7
same,H2 L2 of H2 L2:H2 L1 (screen),[7],74.5
same,H2 L2 of H2 L2:H2 L1 (verification),[7],51.4
D3H44 heavy chain (Fab format) A139W_V190S,H2 L1 of H2 L2:H2 L1 (screen),[6],21.1
same,H2 L1 of H2 L2:H2 L1 (verification),[6],22.3
same,H1 L2 of H1 L1:H1 L2 (screen),[8],15.7
same,H1 L2 of H1 L1:H1 L2 (verification),[8],20.2
same,H1 L2 of H1 L1:H1 L2 (screen),[4],33.4
same,H1 L2 of H1 L1:H1 L2 (verification),[4],0.722
same,H1 L1 of H1 L1:H1 L2 (screen),[5],68.7
same,H1 L1 of H1 L1:H1 L2 (verification),[5],83.8
same,H1 L1 of H1 L1:H1 L2 (screen),[9],84.8
same,H1 L1 of H1 L1:H1 L2 (verification),[9],55.4
same,H2 L2 of H2 L2:H2 L1 (screen),[7],66.9
same,H2 L2 of H2 L2:H2 L1 (verification),[7],43
D3H44 heavy chain (Fab format) F100W,H2 L1 of H2 L2:H2 L1 (screen),[10],29.7
same,H2 L1 of H2 L2:H2 L1 (verification),[10],44.9
same,H2 L2 of H2 L2:H2 L1 (screen),[11],56.8
same,H2 L2 of H2 L2:H2 L1 (verification),[11],38.9
D3H44 heavy chain (Fab format) F174V_S188L,H2 L1 of H2 L2:H2 L1 (screen),[12],5.94
same,H2 L2 of H2 L2:H2 L1 (screen),[13],103
D3H44 heavy chain (Fab format) L45W,H1 L1 of H1 L1:H1 L2 (screen),[14],54.5
same,H1 L1 of H1 L1:H1 L2 (verification),[14],58.1
same,H1 L2 of H1 L1:H1 L2 (screen),[15],23.9
same,H1 L2 of H1 L1:H1 L2 (verification),[15],31
D3H44 heavy chain (Fab format) Q39D,H2 L2 of H2 L2:H2 L1 (screen),[16],71.7
same,H1 L2 of H1 L1:H1 L2 (screen),[17],34.5
same,H1 L2 of H1 L1:H1 L2 (verification),[17],31.1
same,H1 L1 of H1 L1:H1 L2 (screen),[18],66.9
same,H1 L1 of H1 L1:H1 L2 (verification),[18],61.8
same,H2 L1 of H2 L2:H2 L1 (screen),[19],27.4
D3H44 heavy chain (Fab format) Q39E,H1 L2 of H1 L1:H1 L2 (screen),[20],29.7
same,H1 L2 of H1 L1:H1 L2 (verification),[20],7.2
D3H44 heavy chain (Fab format) Q39K,H1 L2 of H1 L1:H1 L2 (screen),[16],30.1
same,H1 L2 of H1 L1:H1 L2 (verification),[16],21.7
same,H1 L1 of H1 L1:H1 L2 (screen),[19],54.8
same,H1 L1 of H1 L1:H1 L2 (verification),[19],66.5
D3H44 heavy chain (Fab format) S188L,H2 L1 of H2 L2:H2 L1 (screen),[12],9.32
same,H2 L2 of H2 L2:H2 L1 (screen),[13],92.5
D3H44 heavy chain (Fab format) V37A_W103H,H2 L2 of H2 L2:H2 L1 (screen),[21],66.5
same,H2 L1 of H2 L2:H2 L1 (screen),[22],6.38
same,H2 L1 of H2 L2:H2 L1 (screen),[14],18.9
same,H1 L1 of H1 L1:H1 L2 (screen),[23],53.6
same,H1 L1 of H1 L1:H1 L2 (screen),[24],67.5
same,H1 L1 of H1 L1:H1 L2 (verification),[24],47.1
same,H1 L2 of H1 L1:H1 L2 (screen),[25],19.6
same,H1 L2 of H1 L1:H1 L2 (screen),[26],8.79
same,H1 L2 of H1 L1:H1 L2 (verification),[26],12.3
same,H2 L2 of H2 L2:H2 L1 (screen),[15],53.1
D3H44 heavy chain (Fab format) V37A_W103V,H2 L1 of H2 L2:H2 L1 (screen),[27],22.8
same,H2 L1 of H2 L2:H2 L1 (verification),[27],23
same,H2 L1 of H2 L2:H2 L1 (screen),[23],18.6
same,H2 L1 of H2 L2:H2 L1 (verification),[23],44.7
same,H1 L1 of H1 L1:H1 L2 (screen),[24],58.9
same,H2 L2 of H2 L2:H2 L1 (screen),[28],54.8
same,H2 L2 of H2 L2:H2 L1 (verification),[28],52
same,H2 L2 of H2 L2:H2 L1 (screen),[25],53
same,H2 L2 of H2 L2:H2 L1 (verification),[25],23.3
same,H1 L2 of H1 L1:H1 L2 (screen),[26],25.3
D3H44 heavy chain (Fab format) V37I_F100W,H2 L1 of H2 L2:H2 L1 (screen),[27],26.9
same,H2 L1 of H2 L2:H2 L1 (verification),[27],47.9
same,H2 L2 of H2 L2:H2 L1 (screen),[28],67.3
same,H2 L2 of H2 L2:H2 L1 (verification),[28],30.5
D3H44 heavy chain (Fab format) V37S_A97K,H2 L1 of H2 L2:H2 L1 (screen),[29],0.5
same,H2 L1 of H2 L2:H2 L1 (verification),[29],11.7
same,H2 L2 of H2 L2:H2 L1 (screen),[30],71.6
same,H2 L2 of H2 L2:H2 L1 (verification),[30],65.6
D3H44 heavy chain (Fab format) V37W_W103F,H1 L2 of H1 L1:H1 L2 (screen),[31],14.8
same,H1 L2 of H1 L1:H1 L2 (verification),[31],27.7
same,H1 L1 of H1 L1:H1 L2 (screen),[32],64.2
same,H1 L1 of H1 L1:H1 L2 (verification),[32],38.2
D3H44 heavy chain (Fab format) V37W_W103H,H1 L2 of H1 L1:H1 L2 (screen),[21],29.2
same,H1 L2 of H1 L1:H1 L2 (verification),[21],21.2
same,H1 L2 of H1 L1:H1 L2 (screen),[31],30
same,H1 L2 of H1 L1:H1 L2 (verification),[31],30.5
same,H1 L1 of H1 L1:H1 L2 (screen),[22],48.3
same,H1 L1 of H1 L1:H1 L2 (verification),[22],56
same,H1 L1 of H1 L1:H1 L2 (screen),[32],57.2
same,H1 L1 of H1 L1:H1 L2 (verification),[32],62.3
D3H44 heavy chain (Fab format) V190G,H1 L2 of H1 L1:H1 L2 (screen),[8],24.1
same,H1 L2 of H1 L1:H1 L2 (verification),[8],50.8
same,H1 L2 of H1 L1:H1 L2 (screen),[4],35.3
same,H1 L1 of H1 L1:H1 L2 (screen),[5],55.1
same,H1 L1 of H1 L1:H1 L2 (screen),[9],78.2
same,H1 L1 of H1 L1:H1 L2 (verification),[9],25.9
